Assay [1] addresses T1, rat DPEP-1 (Rattus norvegicus, UniProt P31430).
T1 construct: expressed in transfected cells; host or cells: Cos-1
Briefly: Binding of Alexa-488 conjugated peptide to Cos-1 cells transfected with rat DPEP-1 (immunofluorescence). The settings on record: Cos-1 cells transiently transfected with rat DPEP-1 cDNA, 30 minutes on ice. As to the method:
(§1) Cos-1 cells were transiently transfected with either 3 or 5|ig of membrane dipeptidase (DPEP-1) cDNA corresponding to the rat (Shown in FIG. 5A) or human DPEP-1 (Shown in FIG. 5B) gene using lipofectamine 2000 (Invitrogen) reagent in OptiMEM medium 24 hours after transfection, DPEP-1 expressing cells were re-seeded on collagen coated (neutralized) wells in 24 well plates and allowed to grow for 24 hours at 37 °C. 24 hours after seeding, media was removed and cells were washed with PBS. Cells were blocked with FBS/NBSA/Tween in PBS for 30 minutes on ice. Cells were then washed with PBS and incubated with Alexa-488 (green) conjugated LSALT, GFE-1, control peptide or DPEP-1 antibody (1/100) (Sigma) on ice for 30 minutes. […] After incubation, cells were washed with PBS and treated with 10 mg/ml biotin transfer peptide (LSALT, GFE-1 or Control Peptide (KGAL)] for 10 minutes. Cells were then washed with PBS and biotin transfer was enabled by UV activation of the aryl azide groups for 15 minutes at 363 nm. Residual fluid was removed and monolayers were lysed either with octyl-glucoside/RIPA or 8M urea. Isolated supernatants were rotated with […] of neutr-avidin agarose beads at 4° C. for 24 hours. Beads were washed with corresponding buffers, boiled in Laemmli buffer and analyzed by western blot using a DPEP-1 specific antibody (Proteintech).

The target of assay [2] is T2, human DPEP-1 (Homo sapiens, UniProt P16444).
T2 construct: expressed in transfected cells; host or cells: Cos-1
T2 sequence (P16444 17-385): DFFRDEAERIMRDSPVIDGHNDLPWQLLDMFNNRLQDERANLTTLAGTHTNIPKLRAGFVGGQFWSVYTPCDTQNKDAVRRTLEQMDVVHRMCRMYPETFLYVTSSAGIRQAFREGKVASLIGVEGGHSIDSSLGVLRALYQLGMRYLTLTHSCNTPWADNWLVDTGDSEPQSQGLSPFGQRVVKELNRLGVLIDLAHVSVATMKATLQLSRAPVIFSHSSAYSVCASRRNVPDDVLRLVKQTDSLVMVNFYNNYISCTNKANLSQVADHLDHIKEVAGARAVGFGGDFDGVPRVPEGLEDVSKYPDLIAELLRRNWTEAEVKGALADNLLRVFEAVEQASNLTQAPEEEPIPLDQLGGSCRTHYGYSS
Kind of assay: Binding of Alexa-488 conjugated peptide to Cos-1 cells transfected with human DPEP-1 (immunofluorescence, biotin transfer). Conditions: Cos-1 cells transiently transfected with human DPEP-1 cDNA, 30 minutes on ice. As to the method:
as §1

Assay [3] deals with T3, Human DPEP2 (Homo sapiens, UniProt Q9H4A9).
T3 construct: expressed in transfected cells; host or cells: Cos-1
Briefly: Binding of Alexa-488 conjugated peptide to Cos-1 cells transfected with human DPEP2. As to the method: (§2) Cos-1 cells were transiently transfected with either […] of human DPEP-1, DPEP2, or DPEP3 gene using lipofectamine 2000 (Invitrogen) reagent in OptiMEM medium. 24 hours after transfection, DPEP-1, DPEP2, or DPEP3 expressing cells were re-seeded on collagen coated (neutralized) wells in 24 well plates and allowed to grow for 24 hours at 37º° C. 24 hours after seeding, media was removed and cells were washed with PBS. Cells were blocked with FBS/NBSA/Tween in PBS for 30 minutes on ice. Cells were then washed with PBS and incubated with LSALT or GFE-1, conjugated with Alexa-488 (green). After incubation, cells were washed with PBS and stained with DAPI for 5 minutes on ice. Cells were then washed with PBS and fixed using 4% paraformaldehyde and immunofluorescence microscopy was performed to assess binding. Representative photomicrographs are shown for each experimental condition (n=3) in FIG. 6A. Proteins from DPEP-1. DPEP2 and DPEP3 transfected cells were isolated after 48 hours using octyl-glucoside/RIPA lysis buffer and western blot analysis was performed to assess DPEP-1, DPEP2 and DPEP3 protein expression using specific antibodies; DPEP-1 antibody (Sigma), DPEP2 (Abcam) and DPEP3 (Santacruz). Blots were stripped and reprobed with an anti-P-actin.

In assay [4] the target is T4, Human DPEP-3 (Homo sapiens, UniProt Q9H4B8).
T4 construct: expressed in transfected cells; host or cells: Cos-1
T4 sequence (Q9H4B8 36-463): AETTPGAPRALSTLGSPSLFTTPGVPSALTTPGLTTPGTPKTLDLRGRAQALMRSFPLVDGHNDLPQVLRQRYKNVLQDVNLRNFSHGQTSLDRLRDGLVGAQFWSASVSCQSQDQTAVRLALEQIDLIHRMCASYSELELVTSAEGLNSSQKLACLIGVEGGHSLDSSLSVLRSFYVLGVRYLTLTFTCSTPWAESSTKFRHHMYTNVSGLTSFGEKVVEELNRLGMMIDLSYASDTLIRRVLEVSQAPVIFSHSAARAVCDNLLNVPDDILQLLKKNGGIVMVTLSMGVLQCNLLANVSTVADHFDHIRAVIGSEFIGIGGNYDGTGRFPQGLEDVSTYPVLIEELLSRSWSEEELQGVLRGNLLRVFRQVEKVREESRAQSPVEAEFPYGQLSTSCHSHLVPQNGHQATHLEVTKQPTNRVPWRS
Briefly: Binding of Alexa-488 conjugated peptide to Cos-1 cells transfected with human DPEP3. As to the method:
as §2

Assay [5] has as its system neutrophil adhesion in the hepatic sinusoids. Briefly: Neutrophil adhesion in hepatic sinusoids after LPS, intravital microscopy. The settings on record: for neutrophil adhesion in the hepatic sinusoids in the presence of LPS: 1 mM peptide intravenous 5 minutes after 0.5 mg/kg LPS intraperitoneal, liver imaged after 3 hours. Type of assay: in vivo, LysMeGFP mice. As to the method: Six to ten week old LysMeGFP mice were injected with 1 mM dose of LSALT or GFE-1 peptides (intravenous) 5 minutes after the injection of 0.5 mg/kg of lipopolysaccharide (intraperitoneal). After 3 hours, animals were injected with ketamine and xylazine to provide general anesthesia. Fluorescently conjugated F4/80 and PECAM-1 antibodies were then administered via jugular vein cannulation and intravital spinning disk confocal microscopy was performed. The livers were imaged for an hour and the number of neutrophils were counted at different time points. Neutrophils which were stationary for >30 seconds in the liver sinusoids were counted as adherent cells. Data are representative of three independent experiments. An unpaired 2-tailed student's t-test was performed comparing LSALT, GFE-1 or control treated group against the LPS treated group (*p<0.05).

In assay [6] the target is T5, renal rat membrane dipeptidase (DPEP-1) (Rattus norvegicus, UniProt P31430).
T5 construct: expressed in transfected cells; host or cells: Cos-7
Briefly: Peptide binding to Cos-7 cells transfected with rat DPEP-1, immunofluorescence microscopy. The settings on record: rat DPEP-1 transfected Cos-7 cells; fluorescently conjugated peptide on ice 30 minutes. As to the method:
Cos-7 cells were transiently transfected with […] of renal rat membrane dipeptidase (DPEP-1) plasmid using lipofectamine 2000 (Invitrogen) reagent. 48 hours after transfection, media was removed and cells were washed with PBS. Cells were incubated with LSALT conjugated with Alexa-488 (Green), GFE-1 peptide conjugated with Alexa-568 (Red) or control peptide conjugated with Alexa-488 (Green) on ice for 30 minutes. Cells were washed and fixed using 4% paraformaldehyde and immunofluorescence microscopy was performed to assess binding. Shown are representative photomicrographs of each experimental condition (n=2).

Assay [7] deals with T5, renal rat membrane dipeptidase (DPEP-1). Briefly: Peptide binding to Cos-7 cells transfected with rat DPEP-1, flow cytometry. Conditions: rat DPEP-1 transfected Cos-7 cells; Alexa-488 conjugated peptide on ice 30 minutes. As to the method:
Cos-7 cells were transiently transfected with 5∧g of renal rat membrane dipeptidase (DPEP-1) plasmid using lipofectamine2000 (Invitrogen) reagent. 48 hours after transfection, cells were incubated with LSALT conjugated to Alexa-488 (green) on ice for 30 minutes. Cells were washed and flow cytometry was performed to assess binding Shown are single parameter histographs for each experimental condition (n=2).

Assay [8] deals with T6, human membrane dipeptidase (DPEP-1) (Homo sapiens, UniProt P16444).
T6 construct: expressed in transfected cells; host or cells: Cos-1 (protein lysate, octylglucoside)
T6 sequence (P16444 17-385): T2 sequence (P16444 17-385)
Kind of assay: Membrane dipeptidase enzyme activity assay, fluorimetric detection of D-Phe from Gly-D-Phe. Type of assay: biochemical. Conditions: protein from human DPEP-1 transfected Cos-1 cells; Gly-D-Phe substrate, 37° C., 3 hours. As to the method: Cos-1 cells were transiently transfected with […] of human membrane dipeptidase (DPEP-1) plasmid using lipofectamine 2000 (Invitrogen) reagent. 48 hours after transfection, media was removed and cells were washed with PBS. Proteins were isolated using octylglucoside in the absence of protease inhibitors. Membrane dipeptidase assay and the fluorimetric detection of D-Phe was performed exactly as described by Heywood and Hooper previously. In brief, proteins were first incubated with membrane dipeptidase substrate Gly-D-Phe either in the presence or absence of LSALT or GFE-1 peptide at 37° C. for 3 hours. The fluorescence signal generated from the conversion of D-Phe to […] in the presence of D-aminoacidoxidase and peroxidase was measured using a fluorescence plate reader.

The subject of assay [9] is serum cytokines in response to LPS. Briefly: Plasma cytokine levels after LPS, Luminex Cytokine Arrays. The settings on record: LPS 0.5 mg/kg intraperitoneal 5 minutes prior to intravenous peptide; plasma at 4 hours. Format: in vivo, SCID mice. As to the method:
6-8 weeks old SCID mice were given an intraperitoneal injection of LPS (0.5 mg/kg) 5 minutes prior to intravenous injection of LSALT peptide or a control peptide. 4 hours following injection of LPS, blood was collected by cardiac puncture and changes in plasma cytokine levels were assessed using Luminex Cytokine Arrays. Bar graphs show the levels of different inflammatory mediators released in the plasma in the presence or absence of LSALT peptide and control peptide.
6-8 weeks old SCID mice were given an intraperitoneal injection of LPS (0.5 mg/kg) 5 minutes prior to intravenous injection of LSALT peptide or a control peptide. 4 hours following injection of LPS, blood was collected by cardiac puncture and changes in plasma cytokine levels were assessed using Luminex Cytokine Arrays. Bar graphs show the level of the anti-inflammatory cytokine IL-10 released in the plasma in LSALT peptide or control peptide in two independent experiments.

Assay [10] relates to B16-F10 murine melanoma cells. Kind of assay: B16-F10 melanoma lung metastasis, syngeneic model. Type of assay: in vivo, C57-BL6 mice. Conditions: 1 mM peptide intravenous 5 minutes before 100,000 B16-F10 cells; lungs harvested after 2 weeks. As to the method: 8-10 weeks old C57-BL6 mice (Charles River) were injected intravenously with 100,000 B16-F10 murine melanoma cells 5 minutes after the injection of either LSALT or GFE-1 peptide (1 mM) via intravenous tail injection. Animals were sacrificed after 2 weeks and lungs were harvested. Tissues were processed for histology as described before and bematoxylin-eosin staining was performed to assess tumor burden.

In assay [11] the test system is tumor cell line. Kind of assay: Tumor burden in livers or lungs of animals injected with a tumor cell line. Format: in vivo.
Assay [12] concerns DPEP-1. Conditions: cited from earlier work.

T5 sequence (P31430 17-384): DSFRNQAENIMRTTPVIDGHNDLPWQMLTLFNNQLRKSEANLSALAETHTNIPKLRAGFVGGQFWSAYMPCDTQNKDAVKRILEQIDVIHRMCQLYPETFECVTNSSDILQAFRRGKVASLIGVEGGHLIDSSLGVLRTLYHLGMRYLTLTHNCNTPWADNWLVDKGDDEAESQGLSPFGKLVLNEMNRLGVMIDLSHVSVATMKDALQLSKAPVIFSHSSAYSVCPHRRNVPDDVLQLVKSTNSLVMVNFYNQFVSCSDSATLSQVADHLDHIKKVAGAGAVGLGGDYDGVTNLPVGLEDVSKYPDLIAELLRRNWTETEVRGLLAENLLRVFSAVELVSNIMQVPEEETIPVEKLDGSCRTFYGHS
T3 sequence (Q9H4A9 33-463): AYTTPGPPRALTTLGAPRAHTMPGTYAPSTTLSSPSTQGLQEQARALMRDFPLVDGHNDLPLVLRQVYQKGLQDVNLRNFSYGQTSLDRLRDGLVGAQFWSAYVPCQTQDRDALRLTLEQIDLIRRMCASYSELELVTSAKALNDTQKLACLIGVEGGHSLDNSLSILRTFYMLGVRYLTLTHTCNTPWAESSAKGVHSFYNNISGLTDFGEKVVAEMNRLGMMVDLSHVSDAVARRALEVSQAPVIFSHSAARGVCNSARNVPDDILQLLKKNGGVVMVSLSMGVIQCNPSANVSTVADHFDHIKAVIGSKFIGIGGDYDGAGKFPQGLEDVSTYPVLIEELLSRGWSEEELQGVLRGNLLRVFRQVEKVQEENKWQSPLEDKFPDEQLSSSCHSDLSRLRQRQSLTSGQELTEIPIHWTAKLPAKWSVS
T1 sequence (P31430 17-384): as the sequence (P31430 17-384) above

For “LSALTPSPSWLKYKAL (listed as Homo sapiens)”, the “binding to rat DPEP-1” value in assay [1] was “Bonds”. Further, in [2], the “binding to human DPEP-1” value is given as “Bonds”. Besides, in assay [3], the “binding to human DPEP2 in vitro” value is “do not Bind”. Also, the “binding to human DPEP-3 in vitro” value in assay [4] is “do not Bind”. The “neutrophil adhesion in the hepatic sinusoids in the presence of LPS” value in [5] is on record as “inhibit neutrophil adhesion”. In addition, the “neutrophil recruitment to the liver” value in assay [5] (mouse model of sepsis) is “reduced neutrophil recruitment”. The “binding to Cos-7 cells with expression of DPEP-1 (immunofluorescence microscopy)” value in assay [6] is “enhanced the binding”. In addition, in [7], the “binding to Cos-7 cells with expression of DPEP-1 (flow cytometry)” value is “enhanced the binding”. The “inhibition of membrane dipeptidase enzyme activity” value in assay [8] was “does not inhibit”. For the same sequence, in assay [9], the “levels of serum cytokines (inflammatory mediators) in response to LPS” value was “attenuates the levels” and the “production of the anti-inflammatory mediator IL-10 in response to LPS” value was “increases the production”. In addition, in assay [10], the melanoma-lung metastasis result is recorded as “Inhibits”. For the same sequence, the “tumor burden in the livers or lungs” value in assay [11] is “dramatically reduce tumor burden”.

Consider “CGFECVRQCPERC (listed as Homo sapiens) [GFE-1, reference compound]”, for which the “binding to human DPEP2 in vitro” value in [3] is “do not Bind”. Besides, the “binding to human DPEP-3 in vitro” value in [4] is recorded as “do not Bind”. Moreover, the “neutrophil adhesion in the hepatic sinusoids in the presence of LPS” value in assay [5] is “inhibit neutrophil adhesion”. The “binding to Cos-7 cells with expression of DPEP-1 (immunofluorescence microscopy)” value in [6] is “enhanced the binding”. The “DPEP-1 binding activity in lung microvasculature” value in assay [12] is listed as “having DPEP-1 binding activity”.

“CGFELETC (listed as Homo sapiens) [GFE-2]”: the “DPEP-1 binding activity in lung microvasculature” value in assay [12] is “having DPEP-1 binding activity”.
